Source: the supplement of paper PMC9170038

Tested on: K4 kissing-loop RNA reporter
Test: apparent KD of K4 kissing-loop reporter; higher = weaker reporter binding
Conditions: Eterna round: R107
Method: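 RNA-MaP round R107: designed RNA switches with theophylline, tryptophan, arginine or FMN aptamers are transcribed on-chip within common flanks. They are titrated with a labelled K4 kissing-loop RNA reporter in RNA-MaP buffer (100 mM Tris pH 7.5, 80 mM KCl, 4 mM MgCl2), without ligand or with the indicated ligand. Median apparent KD per design.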

[1] = input ligand: theophylline 20 uM
[2] = input ligand: tryptophan 2.4 mM
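Note: bound reporter read as fluorescence of individual clusters on recovered sequencing chips by microscopy, with normalized cluster intensities fitted with a binding model.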

Sequence	apparent KD of K4 kissing-loop reporter (input ligand: FMN 200 uM) [nM]	apparent KD of K4 kissing-loop reporter (input ligand: arginine 13.2 mM) [nM]	apparent KD of K4 kissing-loop reporter (input ligand: none) [nM]	apparent KD of K4 kissing-loop reporter [1] [nM]	apparent KD of K4 kissing-loop reporter [2] [nM]
CUAAGGGAAGCAGGAUAUCGGUAUUAGUGUGUUAAAUAAACACUCGGGUAGUGAUGUUGCCCGUGGCGAGAAGGGCUACCAUUGG [Laace]	33.6	44.8	48.7	41.4	47.3
UGGGAUGUUAAAGGAUAUAGCAGAUGAUACAAGAAAGUGAGUGAUGUUUAUGUAGAUGAUGAUAUGUUAGAAGGUUAACAAAACG [abcdefghijk]	625	595	754	715	544
CUUGGAAGGACGGCCGCCACUCGACAGUGAUGUUGUCCGAGUGGGUAGCGCAGUGAUGUUGUGUCGAGGACCGGGUCCUAGGAAU [Exclusion Tryptophan B GF 27]	185	149	170	155	137
GCAUCCAUGGCAGGAUAUAGGUUCGUGGAGUGAUGUUCCAUAGCCCGAGUGAUGUUCGUUAUCCGCCUAGAAGGGCCGUGGAUGC [whbob_Ex_FMNB__2th214]	248	184	235	192	212
GCGCGUCAUGUCAGCGGUGACACUGUCGAUACCAGCGCCGAAAGGCGCCCUUGGCAGCGACGUGCUGGAGUGAUGUUCCAGCGUG [#2 Exclusion - Theophylline A Attempt #25 (HarryS)]	197	160	182	203	184
GCAGUCCGGACGGCCGCCACUAUCCGUAAAGUGAUGUUUUACGAACAAUCGAUUGCAUAUCAGAAUAGGACCGGGUCCGUCGACC [theeternabot_sameState_KL_Trp_B_15]	228	185	212	170	201
AAACUACGUGACGAUACCAGCUUACUCGGCAAGCCAGUGAUGUUGGUGAAAAGGAGUCAAAGCCCUUGGCAGCGUCGAAGGUUUG [Usandiat]	257	215	252	129	255
AGACUUCACCGAAGGAGCGACGUAGCCUAGUGAUGUUAGGCACGAGAGAAAUCUCGUAUACGUCAGGUAGGUCGCGGUGAAGUCA [Omei KL Arginine B SS C v1]	196	138	161	171	161
GCAUCAUGCUACGAUACCAGAAGUUCCCUUUAGUGUAGUGAUGUUGCAGAUAUUGCUUACUUCCCUUGGCAGCGUUUGACGGGUA [theeternabot_sameState_KL_Theo_B_35]	256	205	220	335	155
UAUUGAUUGUCAGGAUAUCGUAAACGAGUGAUGUUCGUAAAUCGACGAUAGUCGAUAUGAUCUGAACGAGAAGGGACAUUAUUUA [JR_SSFMNB_Sub010]	365	311	388	336	305
UACAUUUUAUUAACACUAAAUACAACUGAAGGAGCGACAAUAAAGUCAGGUAGGUCGCAGAAUAAAUGAGUGAUGUUCAUUAUUG [JR_ExcArginiA_Sub016]	60.2	101	63.8	92.8	51.2
CCAAGCGUCAGCGAUACCAGAAUUCUAGUGAUGUUAGGUUCUGUCAUUGUACUAGCAGUGUUCCCUUGGCAGCGCGUGAUAGGCA [theeternabot_exclusion_KL_Theo_B_16]	170	121	140	173	138
AGACUACCACACUGUCAAUAGACAGUGAACUAGGAUAUGCUGAUAAGCAGAAGGAGUGAUGUUCCUAAUAAGGUAGUCAUAUAAU [FmnAX 15 #SwitchBubble #StaticStem #K4Early]	590	482	558	637	503
CGCGGCCCGCCGGAUACCAGUGACCCGCGGGAAACCGCGGGCCCAGAGUGAUGUUCGGGACACCCUUGGCAGCCGCCUGGGCGUG [#2 Same State - Theophylline B Attempt #1 (HarryS)]	567	325	620	1000	424
GUAUGUUCGAAAGAACGUACAUCUUCGGAAGGAGCGCGUGAAAACGCAGGUAGGUCGCCGAAGUUAUUAGGUAGUGAUGUUACCU [Arginine A K4 8]	128	99.1	101	109	114
UGCAUGCUUAGAGUGAUGUUCUAAGAUGAUACCAGUGCUUUUUUGCACCCUUGGCAGCGUCUGAUUGCAUGCACGUCGAAAGACG	288	287	279	266	289
